From US20230357411A1 (published 2023)

How the values were obtained:
[1] = target: T1, Human-TrKA receptor on the surface of HEK293T-HumanTrKA cells (human, UniProt P04629 33-796); experiment: flow cytometry on HEK293T-HumanTrkA cells
T1 construct: whole, on cells
Method: (§1) Lentiviral technology was used to construct HEK293T-HumanTrkA cell model. […] Flow cytometry was used to detect the binding of each concentration gradient humanized antibody to the Human-TrKA receptor on the surface of HEK293T-HumanTrKA cells, and the binding ability of each humanized antibody to Human-TrKA was evaluated at the cellular level. In the FIG. 2, the EC50 (half binding concentration) value reflected the binding ability of the antibody to Human-TrKA; the smaller the EC50 value, the stronger the binding ability of the antibody to Human-TrKA, and the higher the affinity of the antibody. It was generally believed that the EC50 value of high-affinity antibodies was lower than 1.5 μg/mL.

[2] = target: T2, Mouse-TrKA on the surface of HEK293T-MouseTrKA cells (mouse, UniProt Q3UFB7 34-799); experiment: flow cytometry on HEK293T-MouseTrkA cells
T2 construct: whole, on cells
Method: as §1, with “construct HEK293T-MouseTrkA” for “construct HEK293T-HumanTrkA”, “of HEK293T-MouseTrKA” for “of HEK293T-HumanTrKA”, “to Mouse-TrKA” for “to Human-TrKA”, “FIG. 3,” for “FIG. 2,”, “to Mouse-TrKA;” for “to Human-TrKA;”, “to Mouse-TrKA,” for “to Human-TrKA,”

[3] = target: T1, Human-TrKA receptor on the surface of …; experiment: flow cytometry competition: inhibition of biotinylated Human-NGF binding to HEK293T-HumanTrkA cells
Source text: (§2) Human-NGF was biotinylated, and Human-NGF could bind to the extracellular region of Human-TrkA protein on HEK293T-HumanTrkA cells, and anti-TrkA monoclonal antibodies could also bind to the extracellular region of Human-TrkA protein on HEK293T-HumanTrkA cells. […] In the FIG. 4, the parent% value reflected the Human-NGF signal that bound to the extracellular region of the Human-TrKA protein on HEK293T-HumanTrkA cells.

[4] = target: T2, Mouse-TrKA on the surface of …; experiment: flow cytometry competition: inhibition of biotinylated Mouse-NGF binding to HEK293T-MouseTrkA cells
Source text: as §2, with “Mouse-NGF” for “Human-NGF”, “Mouse-TrkA” for “Human-TrkA”, “HEK293T-MouseTrkA” for “HEK293T-HumanTrkA”, “5,” for “4,”, “Mouse-TrKA” for “Human-TrKA”

[5] = target: CD16 receptor (Fc gamma RIIIA) on Jurkat-NFAT-Luc-CD16 cells (UniProt P08637 17-254, limits assumed); experiment: cell-based or functional assay
[6] = target: TrkA protein on the surface of NIH-3T3-TrkA cells; experiment: cell-based or functional assay

EC50 [1] [µg/mL] | EC50 [2] [µg/mL] | IC50 [3] [µg/mL] | IC50 [4] [µg/mL] | ADCC activity, luciferase reporter (Mean Value), half of the peak concentration EC50 [5] [µg/mL] | down-regulation of the level of TrkA protein tyrosine phosphorylation under NGF stimulation (AlphaLISA, p-TrkA), IC50 [6] [µg/mL] | Binder | CDC activity, killing of NIH-3T3-TrKA cells (CCK8 cell viability), half-peak concentration IC50 [6] [µg/mL]
0.127 | 0.111 | 0.741 | 0.283 |  |  | humanized anti-TrkA monoclonal antibody H3L1-IgG4 (antibody, V domains shown) VH: EVQLLESGGGLVQPGGSLKLSCKASGYAFTNYWLGWMKQRPGHGLEWIGDFYPRTGNTFYNENFKGQVTMSVDKSITTAYLQWNSLKASDTAMYYCARAGTGFDYWGQGTTLTVSS VL: EIVMTQSPATLSLSVGERVTLSCKASENVGGYVSWYQQKPDQSPKLLIYGASSRHTGVPDRFTGSGSETDFTLTISSVQAEDLAAYHCGQNYIYPFTFGGGTKLEIKR | 
0.168 | 0.125 | 0.665 | 0.252 |  |  | humanized anti-TrkA monoclonal antibody H3L2-IgG4 (antibody, V domains shown) VH: EVQLLESGGGLVQPGGSLKLSCKASGYAFTNYWLGWMKQRPGHGLEWIGDFYPRTGNTFYNENFKGQVTMSVDKSITTAYLQWNSLKASDTAMYYCARAGTGFDYWGQGTTLTVSS VL: EIVMTQSPATLSLSVGERVTLSCKASENVGGYVSWYQQKPDQSPKLLIYGASSRATGVPDRFTGSGSETDFTLTISSVQAEDLAAYHCGQNYIYPFTFGGGTKLEIKR | 
 |  |  |  | 0.0228 |  | humanized anti-TrkA monoclonal antibody H1L1-IgG1 (antibody) VH: EVQLLESGGGLVQPGGSLKLSCKASGYAFTNYWLGWMKQRPGHGLEWIGDFYPRTGNTFYNENFKGKVTLTADKSSNTAYMQLSSLTSEDSAVYLCARAGTGFDYWGQGTTLTVSS light: EIVMTQSPATLSLSVGERVTLSCKASENVGGYVSWYQQKPDQSPKLLIYGASSRHTGVPDRFTGSGSETDFTLTISSVQAEDLAAYHCGQNYIYPFTFGGGTKLEIKRTVAAPSVFIFPPSDEQLKSGTASVVCLLNNFYPREAKVQWKVDNALQSGNSQESVTEQDSKDSTYSLSSTLTLSKADYEKHKVYACEVTHQGLSSPVTKSFNRGEC | 0.222
0.0867 | 0.105 | 0.881 | 0.396 |  |  | human-mouse chimeric anti-TrkA monoclonal antibody 23E12 (H0L0-IgG4) (antibody, Printed mostly as 'HOLO-IgG4' (letter O for zero); also called HOLO-IgG4; chimeric antibody) heavy: QVQLQQSGAELVRPGTSVKISCKASGYAFTNYWLGWMKQRPGHGLEWIGDFYPRTGNTFYNENFKGKVTLTADKSSNTAYMQLSSLTSEDSAVYLCARAGTGFDYWGQGTTLTVSSASTKGPSVFPLAPCSRSTSESTAALGCLVKDYFPEPVTVSWNSGALTSGVHTFPAVLQSSGLYSLSSVVTVPSSSLGTKTYTCNVDHKPSNTKVDKRVESKYGPPCPPCPAPEAAGGPSVFLFPPKPKDTLMISRTPEVTCVVVDVSQEDPEVQFNWYVDGVEVHNAKTKPREEQFNSTYRVVSVLTVLHQDWLNGKEYKCKVSNKGLPSSIEKTISKAKGQPREPQVYTLPPSQEEMTKNQVSLTCLVKGFYPSDIAVEWESNGQPENNYKTTPPVLDSDGSFFLYSKLTVDKSRWQEGNVFSCSVMHEALHNHYTQKSLSLSLG light: SIVMTQSPKSMSMSVGERVTLSCKASENVGGYVSWYQQKPDQSPKLLIYGASSRHTGVPDRFTGSGSETDFTLTISSVQAEDLAAYHCGQNYIYPFTFGGGTKLEIKRTVAAPSVFIFPPSDEQLKSGTASVVCLLNNFYPREAKVQWKVDNALQSGNSQESVTEQDSKDSTYSLSSTLTLSKADYEKHKVYACEVTHQGLSSPVTKSFNRGEC | 
 | 0.134 |  | 0.385 |  | 0.0207 | humanized anti-TrkA monoclonal antibody H1L1-IgG4 (antibody, H1 + L1, IGHG4 heavy chain isotype (mutated Fc), kappa light chain) heavy: EVQLLESGGGLVQPGGSLKLSCKASGYAFTNYWLGWMKQRPGHGLEWIGDFYPRTGNTFYNENFKGKVTLTADKSSNTAYMQLSSLTSEDSAVYLCARAGTGFDYWGQGTTLTVSSASTKGPSVFPLAPCSRSTSESTAALGCLVKDYFPEPVTVSWNSGALTSGVHTFPAVLQSSGLYSLSSVVTVPSSSLGTKTYTCNVDHKPSNTKVDKRVESKYGPPCPPCPAPEAAGGPSVFLFPPKPKDTLMISRTPEVTCVVVDVSQEDPEVQFNWYVDGVEVHNAKTKPREEQFNSTYRVVSVLTVLHQDWLNGKEYKCKVSNKGLPSSIEKTISKAKGQPREPQVYTLPPSQEEMTKNQVSLTCLVKGFYPSDIAVEWESNGQPENNYKTTPPVLDSDGSFFLYSKLTVDKSRWQEGNVFSCSVMHEALHNHYTQKSLSLSLG light: EIVMTQSPATLSLSVGERVTLSCKASENVGGYVSWYQQKPDQSPKLLIYGASSRHTGVPDRFTGSGSETDFTLTISSVQAEDLAAYHCGQNYIYPFTFGGGTKLEIKRTVAAPSVFIFPPSDEQLKSGTASVVCLLNNFYPREAKVQWKVDNALQSGNSQESVTEQDSKDSTYSLSSTLTLSKADYEKHKVYACEVTHQGLSSPVTKSFNRGEC | 
